Key:
[1] = biological target: wheat germ agglutinin (Triticum vulgaris, WGA)-agarose CL-4B (Triticum vulgaris) (UniProt P10968); assay: WGA-agarose lectin affinity chromatography after neuraminidase digestion of the enzyme
[2] = biological target: wheat germ agglutinin (Triticum vulgaris, WGA)-agarose CL-4B (Triticum vulgaris) (UniProt P10968); assay: WGA-agarose lectin affinity chromatography after neuraminidase digestion, eluted with 0.1 M GlcNAc
[3] = biological target: wheat germ agglutinin (Triticum vulgaris, WGA)-agarose CL-4B (Triticum vulgaris) (UniProt P10968); assay: WGA-agarose lectin affinity chromatography after neuraminidase digestion, eluted with 0.5 M GlcNAc
[4] = biological target: concanavalin A (Canavalia ensiformis, ConA)-sepharose 4B (Canavalia ensiformis) (UniProt P02866); assay: ConA-sepharose lectin affinity chromatography, enzyme activity of fractions
[5] = biological target: wheat germ agglutinin (Triticum vulgaris, WGA)-agarose CL-4B (Triticum vulgaris) (UniProt P10968); assay: WGA-agarose lectin affinity chromatography, eluted with 0.1 M GlcNAc
[6] = biological target: wheat germ agglutinin (Triticum vulgaris, WGA)-agarose CL-4B (Triticum vulgaris) (UniProt P10968); assay: WGA-agarose lectin affinity chromatography, enzyme activity of fractions
[7] = biological target: wheat germ agglutinin (Triticum vulgaris, WGA)-agarose CL-4B (Triticum vulgaris) (UniProt P10968); assay: WGA-agarose lectin affinity chromatography, eluted with 0.5 M GlcNAc
[8] = biological target: concanavalin A (Canavalia ensiformis, ConA)-sepharose 4B (Canavalia ensiformis) (UniProt P02866); assay: ConA-sepharose lectin affinity chromatography, eluted with 0.01 M alpha-methyl-D-mannopyranoside
[9] = biological target: wheat germ agglutinin (Triticum vulgaris, WGA)-agarose CL-4B (Triticum vulgaris) (UniProt P10968); assay: WGA-agarose lectin affinity chromatography
[10] = biological target: concanavalin A (Canavalia ensiformis, ConA)-sepharose 4B (Canavalia ensiformis) (UniProt P02866); assay: ConA-sepharose lectin affinity chromatography, eluted with 0.5 M alpha-methyl-D-mannopyranoside

UniProt P10968, sequence (P10968 27-197): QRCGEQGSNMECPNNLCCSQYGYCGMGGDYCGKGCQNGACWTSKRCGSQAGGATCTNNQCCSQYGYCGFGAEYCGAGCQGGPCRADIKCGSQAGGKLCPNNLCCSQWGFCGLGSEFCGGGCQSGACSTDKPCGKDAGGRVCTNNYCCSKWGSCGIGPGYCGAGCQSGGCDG

CD8-TNSALP after neuraminidase digestion (from UniProt P05186 18-505) (enzyme)
percent of relative activity in Unbound fraction [1]: 4% | percent of relative activity in Weakly Bound fraction [2]: 4% | percent of relative activity in Strongly Bound fraction [3]: 92%

CD6-TNSALP after neuraminidase digestion (from UniProt P05186 18-505) (enzyme)
percent of relative activity in Unbound fraction [1]: 2% | percent of relative activity in Weakly Bound fraction [2]: 11% | percent of relative activity in Strongly Bound fraction [3]: 86%

anchorless recombinant human TNSALP (human tissue-nonspecific alkaline phosphatase anchorless at the C-terminal) (from UniProt P05186 18-505) (enzyme)
percent of relative activity in Unbound fraction [4]: 3% | percent of relative activity in Weakly Bound fraction [5]: 66% | percent of relative activity in Unbound fraction [6]: 0% | percent of relative activity in Strongly Bound fraction [7]: 33% | percent of relative activity in Weakly Bound fraction [8]: 59% | percent strongly bound to the WGA column [9]: 34% | percent of relative activity in Strongly Bound fraction [10]: 38%

CD6-TNSALP (human TNSALP anchorless at the C-terminal tagged with a stretch of six L-Asp) (from UniProt P05186 18-505) (enzyme)
percent of relative activity in Unbound fraction [4]: 4% | percent of relative activity in Weakly Bound fraction [5]: 32% | percent of relative activity in Unbound fraction [6]: 3% | percent of relative activity in Strongly Bound fraction [7]: 65% | percent of relative activity in Weakly Bound fraction [8]: 60% | percent of relative activity in Strongly Bound fraction [10]: 36%

anchorless rhTNSALP after neuraminidase digestion (from UniProt P05186 18-505) (enzyme)
percent of relative activity in Unbound fraction [1]: 0% | percent of relative activity in Weakly Bound fraction [2]: 9% | percent of relative activity in Strongly Bound fraction [3]: 91%

CD8-TNSALP (human TNSALP anchorless at the C-terminal tagged with a stretch of eight L-Asp) (from UniProt P05186 18-505) (enzyme)
percent of relative activity in Unbound fraction [4]: 2% | percent of relative activity in Weakly Bound fraction [5]: 23% | percent of relative activity in Unbound fraction [6]: 1% | percent of relative activity in Strongly Bound fraction [7]: 76% | percent of relative activity in Weakly Bound fraction [8]: 59% | percent of relative activity in Strongly Bound fraction [10]: 39%
